Measured values taken from patent US20240239890A1 (Chugai, published 2024).

T1: Human RNF43 extracellular domain (amino acids 1-190) with a Flag tag on its C terminus (human, UniProt Q68DV7 24-190)
T1 construct: also called recombinant human RNF43; human RNF43 ECD
T1 sequence: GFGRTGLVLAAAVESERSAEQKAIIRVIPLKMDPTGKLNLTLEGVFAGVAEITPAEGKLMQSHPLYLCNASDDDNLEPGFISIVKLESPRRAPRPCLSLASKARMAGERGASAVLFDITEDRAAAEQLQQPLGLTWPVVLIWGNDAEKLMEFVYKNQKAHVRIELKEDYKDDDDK

B1: RNN0187jj (antibody, human IgG1, kappa, N297A)
heavy: QSLEESGGDLVKPGASLTLTCTASGFSFNSAYYMCWVRQAPGKGLEWIGCIYTGSGSTYYASWAKGRFTISKTSSTTVTLQMTSLTVADTATYFCARSGVSTYYTLWGPGTLVTVSSASTKGPSVFPLAPSSRSTSESTAALGCLVKDYFPEPVTVSWNSGALTSGVHTFPAVLQSSGLYSLSSVVTVPSSSLGTKTYTCNVDHKPSNTKVDKRVEPKSCDKTHTCPPCPAPELRRGPKVFLFPPKPKDTLMISRTPEVTCVVVDVSQEDPEVQFNWYVDGVEVHNAKTKPREEQFASTYRVVSVLTVLHQDWLNGKEYKCKVSNKGLPSSIEKTISKAKGQPREPQVYTLPPSREEMTKNQVSLTCLVKGFYPSDIAVEWESNGQPENNYKTTPPYLDSDGSFFLYSKLTVDKSRWQQGNVFSCSVMHEALHNHYTQESLSLSPHHHHHHHH
light: DVVMTQTPSSVSAAVGGTVTIKCQASQSIYSGLAWYQQKPGQPPKLLIYGASTLASGVPSRFKGSGSGTEYTLTISGVQCDDAATYYCQNNYYTPSNGWAFGGGTKVEIKRTVAAPSVFIFPPSDEQLKSGTASVVCLLNNFYPREAKVQWKVDNALQSGNSQESVTEQDSKDCTYSLSSTLTLSKADYEKHKVYACEVTHQGLSSPVTKSFNRGEC
notes: Rabbit variable regions recombined with BS03aHis heavy-chain constant region and hk0MC light-chain constant region; also called anti-RNF43 monospecific antibody
B2: RNN0193jj (antibody, human IgG1, kappa, N297A)
heavy: QSLEESGGDLVKPGASLTLTCTASGFSFSNNYWICWVRQAPGKGPEWIACIYTGDGDTDYASWAKGRFTISKTSSTTVTLQMTSLTAADTATYFCAREAGTVDGVWNYVFNLWGPGTLVTVSSASTKGPSVFPLAPSSRSTSESTAALGCLVKDYFPEPVTVSWNSGALTSGVHTFPAVLQSSGLYSLSSVVTVPSSSLGTKTYTCNVDHKPSNTKVDKRVEPKSCDKTHTCPPCPAPELRRGPKVFLFPPKPKDTLMISRTPEVTCVVVDVSQEDPEVQFNWYVDGVEVHNAKTKPREEQFASTYRVVSVLTVLHQDWLNGKEYKCKVSNKGLPSSIEKTISKAKGQPREPQVYTLPPSREEMTKNQVSLTCLVKGFYPSDIAVEWESNGQPENNYKTTPPYLDSDGSFFLYSKLTVDKSRWQQGNVFSCSVMHEALHNHYTQESLSLSPHHHHHHHH
light: AQVLTQTPSPVSAAVGGTVTISCQSSQSVYNDNLAWFQQKPGQPPKLLIYDASTLASGVPSRFKGSGSGTQFTLTISKLQCDDAATYYCQGVYIGHIFTFGGGTKVEIKRTVAAPSVFIFPPSDEQLKSGTASVVCLLNNFYPREAKVQWKVDNALQSGNSQESVTEQDSKDCTYSLSSTLTLSKADYEKHKVYACEVTHQGLSSPVTKSFNRGEC
notes: as for B1
B3: RNN0191kk (antibody, human IgG1, kappa, N297A, V domains shown)
VH: QSLEESGGRLVTPGGSLTLTCTASGFSLSSYAIGWVRQAPGKGLEYVGIIERNDKTAYASWAKGRFTISRTSTTVDLKMTSLTTEDTATYFCARGYLDNSPLWGPGTLVTVSS
VL: AIEMTQTPASVSAAVGGTVTINCQSSQSVGDNIWLGWYQQKPGQPPKLLIRYASTLASGVPSRFKGSGSGTQFTLTISDLECDDAATYYCAGAYNGLIYSFGGGTKVEIKR
notes: as for B1
B4: RNN0207ii (antibody, human IgG1, kappa, N297A)
heavy: QEQLEESGGRLVTPGGSLTLTCTASGFSLSSYVISWVRQAPGEGLEYIGYVSTGGSPYYASWAKGRFTISRTSTAVDLKMTSLTASDTATYFCARYGYLDYSGLDLWGQGTLVTVSSASTKGPSVFPLAPSSRSTSESTAALGCLVKDYFPEPVTVSWNSGALTSGVHTFPAVLQSSGLYSLSSVVTVPSSSLGTKTYTCNVDHKPSNTKVDKRVEPKSCDKTHTCPPCPAPELRRGPKVFLFPPKPKDTLMISRTPEVTCVVVDVSQEDPEVQFNWYVDGVEVHNAKTKPREEQFASTYRVVSVLTVLHQDWLNGKEYKCKVSNKGLPSSIEKTISKAKGQPREPQVYTLPPSREEMTKNQVSLTCLVKGFYPSDIAVEWESNGQPENNYKTTPPYLDSDGSFFLYSKLTVDKSRWQQGNVFSCSVMHEALHNHYTQESLSLSPHHHHHHHH
light: AQVLTQTPSSTSTAVGGTVTINCQSSQSVYEYNHLSWFQQKPGQPPKLLIYGASTLASGVPSRFKGSGSGTQFTLTISDLECDDAATYYCQGAYYGVVDTFGGGTKVEIKRTVAAPSVFIFPPSDEQLKSGTASVVCLLNNFYPREAKVQWKVDNALQSGNSQESVTEQDSKDCTYSLSSTLTLSKADYEKHKVYACEVTHQGLSSPVTKSFNRGEC
notes: as for B1
B5: RNN0242nn (antibody, human IgG1, kappa, N297A)
heavy: QQQLEEYGGDLVQPEGSLTLTCKASGLDFSSSYWMCWVRQAPGKGLEWIACIYTGSSGSTSYASWAKGRFTISKTSSTTVTLQMTSLTAADTATYFCARDYDYTAYAYGIMSLWGPGTLVTVSSASTKGPSVFPLAPSSRSTSESTAALGCLVKDYFPEPVTVSWNSGALTSGVHTFPAVLQSSGLYSLSSVVTVPSSSLGTKTYTCNVDHKPSNTKVDKRVEPKSCDKTHTCPPCPAPELRRGPKVFLFPPKPKDTLMISRTPEVTCVVVDVSQEDPEVQFNWYVDGVEVHNAKTKPREEQFASTYRVVSVLTVLHQDWLNGKEYKCKVSNKGLPSSIEKTISKAKGQPREPQVYTLPPSREEMTKNQVSLTCLVKGFYPSDIAVEWESNGQPENNYKTTPPYLDSDGSFFLYSKLTVDKSRWQQGNVFSCSVMHEALHNHYTQESLSLSPHHHHHHHH
light: AEIVMTQTPSSKSAAVGDTVTIKCQASQSITSYLSWYQQKPGQPPKLLIYRASTLASGVPSRFKGSGSGTQFTLTISDLECADAATYYCQSNYGSYSTNYGVTFGGGTKVEIKRTVAAPSVFIFPPSDEQLKSGTASVVCLLNNFYPREAKVQWKVDNALQSGNSQESVTEQDSKDCTYSLSSTLTLSKADYEKHKVYACEVTHQGLSSPVTKSFNRGEC
notes: as for B1
B6: RNN0198oo (antibody, human IgG1, kappa, N297A, V domains shown)
VH: QEQLVESGGGLVQPEGSLTLTCKASGLDFSSSYWMCWVRQAPGKGLEWIGCIYTGSSGSTYYASWAKGRFTISKTSSTTVTLQMTSLTAADTATYFCARTGSRYWNYFELWGPGTLVTVSS
VL: DVVMTQTPPSVSAAVGGTVTIKCQASQSIYRGLAWYQQKPGQPPNLLIYSASTLASGVPSRFSGSGSGTEYTLTISDLECADAATYYCQSYYYSSSNGWPFGGGTKVEIKR
notes: as for B1
B7: RNN0192nn (antibody, human IgG1, kappa, N297A)
heavy: QEQLVESGGGLVQPEGSLTLTCTASGFSFSSRYYMCWVRQAPGKGLEWIGCIYTGSGSTYYASWAKGRVTISKTSSTTVTLQMTSLTAADTATYFCAREAGSFNLWGPGTLVTVSSASTKGPSVFPLAPSSRSTSESTAALGCLVKDYFPEPVTVSWNSGALTSGVHTFPAVLQSSGLYSLSSVVTVPSSSLGTKTYTCNVDHKPSNTKVDKRVEPKSCDKTHTCPPCPAPELRRGPKVFLFPPKPKDTLMISRTPEVTCVVVDVSQEDPEVQFNWYVDGVEVHNAKTKPREEQFASTYRVVSVLTVLHQDWLNGKEYKCKVSNKGLPSSIEKTISKAKGQPREPQVYTLPPSREEMTKNQVSLTCLVKGFYPSDIAVEWESNGQPENNYKTTPPYLDSDGSFFLYSKLTVDKSRWQQGNVFSCSVMHEALHNHYTQESLSLSPHHHHHHHH
light: DVVMTQTPASVSEPVGGTVTIKCQASQSIYSGLAWYQQKPGQPPKLLIYSASKLASGVPSRFKGSGSGTEYTLTISDLECADAATYYCQNYYYGISNGWTFGGGTKVEIKRTVAAPSVFIFPPSDEQLKSGTASVVCLLNNFYPREAKVQWKVDNALQSGNSQESVTEQDSKDCTYSLSSTLTLSKADYEKHKVYACEVTHQGLSSPVTKSFNRGEC
notes: as for B1

Molecular target: T1, Human RNF43 extracellular domain (amino …)
Assay: SPR, Biacore T200, antibody captured by anti-human Fc, RNF43 as analyte, pH 7.4, 25 C
Protocol: The affinity of the anti-RNF43 monospecific antibodies towards human RNF43 at pH 7.4 was determined at 25 degrees C. using the Biacore T200 instrument (GE Healthcare). Anti-human Fc (GE Healthcare) was immobilized onto all flow cells of a CM4 sensor chip using an amine coupling kit (GE Healthcare). All antibodies and analytes were prepared in ACES at pH 7.4 containing 20 mM ACES, 150 mM NaCl, 0.05% Tween 20, 0.005% NaN₃. Each antibody was captured onto the sensor surface by anti-human Fc. Antibody capture levels were aimed at 312 resonance unit (RU). Recombinant human RNF43 was injected at 200 nM, 50 nM, and 12.5 nM prepared by a four-fold serial dilution, followed by dissociation. The sensor surface was regenerated each cycle with 3M MgCl2. Binding affinity was determined by processing and fitting the data to a 1:1 binding model using the Biacore T200 Evaluation software, version 2.0 (GE Healthcare).

Binder	Kd [nM]	koff [s⁻¹]	kon [M⁻¹ s⁻¹]
B1	17	0.0467	2.75e+06
B2	63.5	0.0458	721000
B3	71.1	0.294	4.14e+06
B4	73.1	0.106	1.45e+06
B5	33.3	0.0235	704000
B6	1.11	0.00291	2.63e+06
B7	0.928	0.00558	6.02e+06
